Test results: paper PMC12477443, “Structural basis for mTORC1 regulation by the CASTOR1–GATOR2 complex” (Nature Structural & Molecular Biology, 2025)
Each block holds one binder with its values, some of them ahead of it.

B3: MIOS (subunit of the recombinant GATOR2 complex) (natural protein, human)
chain: MSGTKPDILWAPHHVDRFVVCDSELSLYHVESTVNSELKAGSLRLSEDSAATLLSINSDTPYMKCVAWYLNYDPECLLAVGQANGRVVLTSLGQDHNSKFKDLIGKEFVPKHARQCNTLAWNPLDSNWLAAGLDKHRADFSVLIWDICSKYTPDIVPMEKVKLSAGETETTLLVTKPLYELGQNDACLSLCWLPRDQKLLLAGMHRNLAIFDLRNTSQKMFVNTKAVQGVTVDPYFHDRVASFYEGQVAIWDLRKFEKPVLTLTEQPKPLTKVAWCPTRTGLLATLTRDSNIIRLYDMQHTPTPIGDETEPTIIERSVQPCDNYIASFAWHPTSQNRMIVVTPNRTMSDFTVFERISLAWSPITSLMWACGRHLYECTEEENDNSLEKDIATKMRLRALSRYGLDTEQVWRNHILAGNEDPQLKSLWYTLHFMKQYTEDMDQKSPGNKGSLVYAGIKSIVKSSLGMVESSRHNWSGLDKQSDIQNLNEERILALQLCGWIKKGTDVDVGPFLNSLVQEGEWERAAAVALFNLDIRRAIQILNEGASSEKGDLNLNVVAMALSGYTDEKNSLWREMCSTLRLQLNNPYLCVMFAFLTSETGSYDGVLYENKVAVRDRVAFACKFLSDTQLNRYIEKLTNEMKEAGNLEGILLTGLTKDGVDLMESYVDRTGDVQTASYCMLQGSPLDVLKDERVQYWIENYRNLLDAWRFWHKRAEFDIHRSKLDPSSKPLAQVFVSCNFCGKSISYSCSAVPHQGRGFSQYGVSGSPTKSKVTSCPGCRKPLPRCALCLINMGTPVSSCPGGTKSDEKVDLSKDKKLAQFNNWFTWCHNCRHGGHAGHMLSWFRDHAECPVSACTCKCMQLDTTGNLVPAETVQP
notes: MIOS, subunit of human GATOR2; codon-optimized DNA in pCAG; The MIOS chain of m1, for the pairs of subunits that touch in the structure

Tests used:
[1] = molecular target: T1, WDR24 (subunit of the recombinant GATOR2 complex) (human, UniProt Q96S15 1-790); assay: cryo-EM structure; purified GATOR2 at 0.45 mg/ml with threefold molar excess of CASTOR1^apo, twofold of SESN2^apo and threefold of GATOR1, 45 min on ice; Talos Arctica, 7.77 Å map; settings: both partners purified
T1 construct: WDR24, subunit of human GATOR2; codon-optimized DNA in pCAG; The WDR24 chain of m1
T1 sequence: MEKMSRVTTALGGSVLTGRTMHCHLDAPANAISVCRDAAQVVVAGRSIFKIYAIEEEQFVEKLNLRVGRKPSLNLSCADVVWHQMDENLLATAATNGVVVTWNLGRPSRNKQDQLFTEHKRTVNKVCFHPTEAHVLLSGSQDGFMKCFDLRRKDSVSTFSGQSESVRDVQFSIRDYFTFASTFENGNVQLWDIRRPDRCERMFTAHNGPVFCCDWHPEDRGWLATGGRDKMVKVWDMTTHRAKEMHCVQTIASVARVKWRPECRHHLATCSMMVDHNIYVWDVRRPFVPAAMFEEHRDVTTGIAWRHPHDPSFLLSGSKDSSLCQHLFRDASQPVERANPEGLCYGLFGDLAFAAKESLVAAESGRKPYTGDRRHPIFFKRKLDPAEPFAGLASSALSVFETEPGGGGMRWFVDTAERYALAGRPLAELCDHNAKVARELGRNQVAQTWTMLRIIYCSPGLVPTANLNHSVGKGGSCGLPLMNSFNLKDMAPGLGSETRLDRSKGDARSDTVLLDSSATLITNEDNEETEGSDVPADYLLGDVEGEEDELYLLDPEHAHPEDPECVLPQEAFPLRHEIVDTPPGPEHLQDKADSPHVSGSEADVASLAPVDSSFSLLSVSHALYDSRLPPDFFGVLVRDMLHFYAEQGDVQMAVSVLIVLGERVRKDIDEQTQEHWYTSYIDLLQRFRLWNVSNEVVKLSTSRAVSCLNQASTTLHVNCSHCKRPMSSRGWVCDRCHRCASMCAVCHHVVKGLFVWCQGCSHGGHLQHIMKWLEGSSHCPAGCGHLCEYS

[2] = molecular target: B3; assay: cryo-EM structure; purified GATOR2 at 0.45 mg/ml with a threefold molar excess of CASTOR1^apo, 45 min on ice, no arginine; Titan Krios; settings: both partners purified
[3] = molecular target: the molecule itself; assay: as above
[4] = molecular target: T2, WDR59 (subunit of the recombinant GATOR2 complex) (human, UniProt Q6PJI9 1-974); assay: as above; settings: both partners purified
T2 construct: WDR59, subunit of human GATOR2; codon-optimized DNA in pCAG; The WDR59 chain of m1
T2 sequence: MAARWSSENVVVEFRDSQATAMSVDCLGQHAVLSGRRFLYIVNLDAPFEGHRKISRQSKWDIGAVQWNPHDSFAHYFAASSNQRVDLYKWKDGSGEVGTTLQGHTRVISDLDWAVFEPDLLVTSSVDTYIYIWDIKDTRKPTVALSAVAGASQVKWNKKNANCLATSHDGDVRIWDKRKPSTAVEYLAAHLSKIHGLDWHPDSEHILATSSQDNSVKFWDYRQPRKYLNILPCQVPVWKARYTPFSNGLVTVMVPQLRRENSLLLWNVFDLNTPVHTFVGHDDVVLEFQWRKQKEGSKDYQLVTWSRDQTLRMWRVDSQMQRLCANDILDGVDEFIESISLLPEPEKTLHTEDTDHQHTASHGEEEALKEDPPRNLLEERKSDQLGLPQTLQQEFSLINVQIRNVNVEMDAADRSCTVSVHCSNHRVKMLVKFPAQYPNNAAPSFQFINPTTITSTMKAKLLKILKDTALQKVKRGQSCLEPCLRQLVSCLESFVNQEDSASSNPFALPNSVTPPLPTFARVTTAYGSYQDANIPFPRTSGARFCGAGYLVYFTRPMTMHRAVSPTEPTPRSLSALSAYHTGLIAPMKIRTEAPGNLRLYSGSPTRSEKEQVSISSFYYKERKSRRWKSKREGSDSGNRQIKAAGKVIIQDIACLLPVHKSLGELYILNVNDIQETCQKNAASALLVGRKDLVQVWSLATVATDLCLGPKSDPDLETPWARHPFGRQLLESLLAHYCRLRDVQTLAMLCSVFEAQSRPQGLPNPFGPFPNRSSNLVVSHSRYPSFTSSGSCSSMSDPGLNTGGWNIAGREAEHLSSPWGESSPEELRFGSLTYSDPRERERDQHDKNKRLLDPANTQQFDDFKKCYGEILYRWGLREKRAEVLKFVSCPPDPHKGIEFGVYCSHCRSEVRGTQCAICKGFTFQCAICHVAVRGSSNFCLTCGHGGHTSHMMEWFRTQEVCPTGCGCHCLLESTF

binding result [1]: binds
B1: SESN2(E451Q/R390A/W444E), apo-locked mutant (natural protein, UniProt P58004 1-480, looked up)
chain: MIVADSECRAELKDYLRFAPGGVGDSGPGEEQRESRARRGPRGPSAFIPVEEVLREGAESLEQHLGLEALMSSGRVDNLAVVMGLHPDYFTSFWRLHYLLLHTDGPLASSWRHYIAIMAAARHQCSYLVGSHMAEFLQTGGDPEWLLGLHRAPEKLRKLSEINKLLAHRPWLITKEHIQALLKTGEHTWSLAELIQALVLLTHCHSLSSFVFGCGILPEGDADGSPAPQAPTPPSEQSSPPSRDPLNNSGGFESARDVEALMERMQQLQESLLRDEGTSQEEMESRFELEKSESLLVTPSADILEPSPHPDMLCFVEDPTFGYEDFTRRGAQAPPTFRAQDYTWEDHGYSLIQRLYPEGGQLLDEKFQAAYSLTYNTIAMHSGVDTSVLARAIWNYIHCVFGIRYDDYDYGEVNQLLERNLKVYIKTVACYPEKTTRRMYNLFERHFRHSQKVHVNLLLLEARMQAALLYALRAITRYMT
notes: sestrin2 (SESN2), leucine sensor; codon-optimized DNA in pET-28a+; also called SESN2^apo; 6×His–SESN2^apo; source: E. coli BL21(DE3), purified (Ni-NTA, SP cation-exchange flowthrough, Superdex 200 gel filtration)

binding result [2]: binds
B2: CASTOR1(S111A/D304A), apo-locked mutant (natural protein)
chain: MELHILEHRVRVLSVARPGLWLYTHPLIKLLFLPRRSRCKFFSLTETPEDYTLMVDEEGFKELPPSEFLQVAEATWLVLNVSSHSGAAVQAAGVTKIARSVIAPLAEHHVAVLMLSTYQTDFILVREQDLSVVIHTLAQEFDIYREVGGEPVPVTRDDSSNGFPRTQHGPSPTVHPIQSPQNRFCVLTLDPETLPAIATTLIDVLFYSHSTPKEAASSSPEPSSITFFAFSLIEGYISIVMDAETQKKFPSDLLLTSSSGELWRMVRIGGQPLGFDECGIVAQIAGPLAAADISAYYISTFNFAHALVPEDGIGSVIEVLQRRQEGLAS
notes: CASTOR1, arginine sensor; codon-optimized DNA in pET-28a+; Homodimer in the structure; also called CASTOR1^apo; 6×His–CASTOR1^apo; source: E. coli BL21(DE3), purified (Ni-NTA, Superdex 200 gel filtration)
stoichiometry N [3]: 2

Binder: B3
binding result [4]: binds
binding result [3]: binds
